Residue numbers refer to the chain shown, from its start. Names and notes keep the numbering of the source.

What all share (test): Steady-state kinetics of 2-ketoacid decarboxylase (ADH/NADH coupled)
Conditions in all cases: other: pH 7.5, 21° C.

Substrate in series [1]: CC(C)C(=O)C(=O)O
Format: biochemical. The text has this: To evaluate if the integrative genomic mining approach enriches the mining for C8 activity, an additional set of previously characterized ketoacid decarboxylases diverse in sequence were experimentally characterized in an equivalent manner. […] The median C8 activity from the GEOs selected using the integrative genomic mining approach is 75-fold higher than the naively picked decarboxylases (Table 1, FIG. 4). This indicates the integrative genomic mining approach is effective in identifying functional enzymes that perform the desired reaction on C8.
For the native KIVD and KIVD_VLV mutant, 2 ml overnight cultures of XL1B cells were transformed with pQE9 containing N-terminal his-tagged KIVD enzymes and grown in Terrific Broth (BP biomedical, Cat#3046-042) with 50 μg/mL of carbenicillin. […] Protein concentrations were determined using a Synergy H1 spectrophotometer (Biotek) by measuring absorbance at 280 nm using their calculated extinction coefficients with ExPASy ProtParam Tool.^33 All other buffers and salts were purchased from Fisher Scientific unless otherwise specified.
The kcat and KM values of selective KIVD mutants were measured for the substrates: C3, C5, isoC5, and C8. […] Activity was measured at 0.005 mM to 10 mM substrates. […] Absorbance readings were taken every 1-minute at OD340 at 21° C. for 60 minutes using the Synergy H1. […]

Substrate in series [2]: CC(C)C(=O)C(=O)O
Format: biochemical, Lactococcus lactis. As for the experimental part: (§1) For the native KIVD and KIVD_VLV mutant, 2 ml overnight cultures of XL1B cells were transformed with pQE9 containing N-terminal his-tagged KIVD enzymes and grown in Terrific Broth (BP biomedical, Cat#3046-042) with 50 μg/mL of carbenicillin. (Fisher scientific, Cat# BP2648-5) For the GEOs, 2 ml overnight cultures of BLR cells were transformed with pet29b+ plasmid containing N-terminal his-tagged GEOs, and grown in Terrific Broth with 50 μg/mL of kanamycin. (Fisher scientific, Cat# BP906-5) These cultures were diluted 1:1000 in 500 mL of Terrific Broth with 1 mM MgSO4, 1% glucose, and 50ug/mL of corresponding antibiotics, then grown at 37° C. for 24 hours. Cultures were pelleted down at 4700 rpm for 10 mins and resuspended in auto-induction media (LB broth, 1 mM MgSO4, 0.1 mM TPP, 1×NPS, and 1×5052) for induction at 18° C. for 34 hours. At the end of induction, cells were centrifuged (4700 rpm, 4° C., 20 minutes), supernatant was removed, and cells were resuspended in 40 mL lysis buffer (100 mM Hepes pH 7.5, 100 mM NaCl, 10% glycerol, 0.1 mM TPP, 1 mM MgSO4, 10 mM Imidazole, 1 mM TCEP) and 1 mM PMSF) and sonicated for 2 minutes. Lysed cells were centrifuged at 4700 rpm at 4° C. for 60 mins to remove cell debris. Supernatant was loaded on gravity flow column with 700 μl of cobalt slurry (Fisher scientific, CAT# PI-90091) washed with 10 ml of wash buffer (100 mM Hepes pH 7.5, 100 mM NaCl, 10% glycerol, 0.1 mM TPP, 1 mM MgSO4, 10 mM Imidazole, and 1 mM TCEP). Cobalt bead bed was washed with 15 ml of wash buffer 5 times and proteins were eluted with 1000 μl of elution buffer (100 mM Hepes pH 7.5, 100 mM NaCl, 10% glycerol, 0.1 mM TPP, 1 mM MgSO4, 200 mM Imidazole, and 1 mM TCEP). Protein samples were immediately buffer exchanged with spin concentrators (Satorius, CAT# VS0112) into storage buffer (100 mM Hepes pH 7.5, 100 mM NaCl, 10% glycerol, 0.1 mM TPP, 1 mM MgSO4, and 1 mM TCEP) and stored at 4° C. until kinetics characterization. Protein concentrations were determined using a Synergy H1 spectrophotometer (Biotek) by measuring absorbance at 280 nm using their calculated extinction coefficients with ExPASy ProtParam Tool.^33 All other buffers and salts were purchased from Fisher Scientific unless otherwise specified.
(§2) The kcat and KM values of selective KIVD mutants were measured for the substrates: C3, C5, isoC5, and C8. All substrates were dissolved in MilliQ H2O and pH was adjusted to 7.5 as necessary. Activity was measured at 0.005 mM to 10 mM substrates. The assay was performed in a 96-well half-area plate. Each reaction contains a final concentration of 0.5 mM NADH, 1 mM DTT, 0.1 mM TPP, 1 mM MgSO4, reaction buffer (100 mM Hepes, 100 mM NaCl, 10% glycerol, pH 7.5) and ADH (Sigma Aldrich, A7011, 10 U/ml for C3, C5 and C8 reactions, 500 U/ml for isoC5 reactions). A wide range of ketoacid decarboxylase concentrations, 4.5 nM-15 μM, were used according to the activity of each enzyme toward different substrates in order to perform steady state kinetics measurement over a period of an hour. Absorbance readings were taken every 1-minute at OD340 at 21° C. for 60 minutes using the Synergy H1. Kinetic parameters (kcat and KM) were determined by fitting initial velocity versus substrate concentration data to the Michaelis-Menten equation.

Substrate in series [3]: CCCC(=O)C(=O)O
Format: biochemical, Lactococcus lactis. As for the experimental part: as §1, §2

Substrate in series [4]: CCCCCCC(=O)C(=O)O
The series is classed as biochemical, Lactococcus lactis. As to the method:
as §1, §2

Substrate in series [5]: CCCC(=O)C(=O)O
The series is classed as biochemical, Lactococcus lactis. As to the method:
(§3) Since KIVD can already efficiently utilize C8 as a substrate, enzyme specificity is of primary importance. Therefore each mutant was screened against a panel of 2-ketoacid substrates in order to assess the specificity and activity of each mutant. (FIG. 11) This assay was performed using a high-throughput pH-dependent colorimetric assay of enzyme activity in crude cell extracts. Mutations that increased specificity for C8 were then combined to produce combinatorial mutants and screened for specificity with the colorimetric assays. […] The engineered enzyme KIVD_VLV has a 600-fold improvement in specificity between C8 and C5, in terms of catalytic efficiency, relative to the native KIVD.
as §1, with “Supernatant was loaded on gravity flow column with 700 μl of cobalt slurry (Fisher scientific, CAT# PI-90091) washed with 10 ml of wash buffer (100 mM Hepes pH 7.5, 100 mM NaCl, 10% glycerol, 0.1 mM TPP, 1 mM MgSO4, 10 mM Imidazole, and 1 mM TCEP). Cobalt bead bed was washed with 15 ml of wash buffer 5 times and proteins were eluted with 1000 μl of elution buffer (100 mM Hepes pH 7.5, 100 mM NaCl, 10% glycerol, 0.1 mM TPP, 1 mM MgSO4, 200 mM Imidazole, and 1 mM TCEP). Protein samples were immediately buffer exchanged with spin concentrators (Satorius, CAT# VS0112) into storage buffer (100 mM Hepes pH 7.5, 100 mM NaCl, 10% glycerol, 0.1 mM TPP, 1 mM MgSO4, and 1 mM TCEP) and stored at 4° C. until kinetics characterization.” left out
(§4) The kcat and KM values of selective KIVD mutants were measured for the substrates: C3, C5, isoC5, and C8. […] Activity was measured at 0.005 mM to 10 mM substrates. […] Absorbance readings were taken every 1-minute at OD340 at 21° C. for 60 minutes using the Synergy H1. Kinetic parameters (kcat and KM) were determined by fitting initial velocity versus substrate concentration data to the Michaelis-Menten equation.
The source holds these as a separate data set.

Substrate in series [6]: CCCCCCC(=O)C(=O)O
The series is classed as biochemical, Lactococcus lactis. As to the method: as §3
as §1, with “Supernatant was loaded on gravity flow column with 700 μl of cobalt slurry (Fisher scientific, CAT# PI-90091) washed with 10 ml of wash buffer (100 mM Hepes pH 7.5, 100 mM NaCl, 10% glycerol, 0.1 mM TPP, 1 mM MgSO4, 10 mM Imidazole, and 1 mM TCEP). Cobalt bead bed was washed with 15 ml of wash buffer 5 times and proteins were eluted with 1000 μl of elution buffer (100 mM Hepes pH 7.5, 100 mM NaCl, 10% glycerol, 0.1 mM TPP, 1 mM MgSO4, 200 mM Imidazole, and 1 mM TCEP). Protein samples were immediately buffer exchanged with spin concentrators (Satorius, CAT# VS0112) into storage buffer (100 mM Hepes pH 7.5, 100 mM NaCl, 10% glycerol, 0.1 mM TPP, 1 mM MgSO4, and 1 mM TCEP) and stored at 4° C. until kinetics characterization.” left out
as §4
This is another data set of the same source.

B1: 1OZF, ketoacid decarboxylase (Klebsiella pneumoniae) (protein)
chain: MDKQYPVRQWAHGADLVVSQLEAQGVRQVFGIPGAKIDKVFDSLLDSSIRIIPVRHEANAAFMAAAVGRITGKAGVALVTSGPGCSNLITGMATANSEGDPVVALGGAVKRADKAKQVHQSMDTVAMFSPVTKYAIEVTAPDALAEVVSNAFRAAEQGRPGSAFVSLPQDVVDGPVSGKVLPASGAPQMGAAPDDAIDQVAKLIAQAKNPIFLLGLMASQPENSKALRRLLETSHIPVTSTYQAAGAVNQDNFSRFAGRVGLFNNQAGDRLLQLADLVICIGYSPVEYEPAMWNSGNATLVHIDVLPAYEERNYTPDVELVGDIAGTLNKLAQNIDHRLVLSPQAAEILRDRQHQRELLDRRGAQLNQFALHPLRIVRAMQDIVNSDVTLTVDMGSFHIWIARYLYTFRARQVMISNGQQTMGVALPWAIGAWLVNPERKVVSVSGDGGFLQSSMELETAVRLKANVLHLIWVDNGYNMVAIQEEKKYQRLSGVEFGPMDFKAYAESFGAKGFAVESAEALEPTLRAAMDVDGPAVVAIPVDYRDNPLLMGQLHLSQIL
Usually Km stands for the substrate concentration at which the rate is half of its maximum. As usually defined, the kcat is the number of substrate molecules converted per active site and unit of time at saturation. B1: in series [1], the Km came to 1.8 ± 0.1 mM and the kcat turned out to be 0.03 ± 0.001 s⁻¹.

B2: Native KIVD (ketoisovalerate decarboxylase), wild type, SEQ ID NO:1 (Lactococcus lactis subsp. lactis) (protein)
chain: MYTVGDYLLDRLHELGIEEIFGVPGDYNLQFLDQIISRKDMKWVGNANELNASYMADGYARTKKAAAFLTTFGVGELSAVNGLAGSYAENLPVVEIVGSPTSKVQNEGKFVHHTLADGDFKHFMKMHEPVTAARTLLTAENATVEIDRVLSALLKERKPVYINLPVDVAAAKAEKPSLPLKKENSTSNTSDQEILNKIQESLKNAKKPIVITGHEIISFGLEKTVSQFISKTKLPITTLNFGKSSVDEALPSFLGIYNGKLSEPNLKEFVESADFILMLGVKLTDSSTGAFTHHLNENKMISLNIDEGKIFNESIQNFDFESLISSLLDLSEIEYKGKYIDKKQEDFVPSNALLSQDRLWQAVENLTQSNETIVAEQGTSFFGASSIFLKPKSHFIGQPLWGSIGYTFPAALGSQIADKESRHLLFIGDGSLQLTVQELGLAIREKINPICFIINNDGYTVEREIHGPNQSYNDIPMWNYSKLPESFGATEERVVSKIVRTENEFVSVMKEAQADPNRMYWIELILAKEDAPKVLKKMGKLFAEQNKS
Take B2: the Km in series [2] is recorded as 4.5 ± 0.3 mM; in series [3] it was 1.5 ± 0.1 mM; in series [4], 0.21 ± 0.04 mM. The kcat in series [2] came out at 61 ± 2.1 s⁻¹; in series [3] it was 14.3 ± 0.2 s⁻¹; in series [4], 7 ± 0.3 s⁻¹.

B3: KIVD variant G402V/M538L/F542V (KIVD_VLV), SEQ ID NO:3 (Lactococcus lactis subsp. lactis; F542V/G402V/M538L) (protein)
chain: B2 chain with G402V, M538L, F542V
Consider B3, for which, in series [5], the Km is recorded as 10.0 ± 1.0 mM and the kcat came out at 0.013 ± 0.001 s⁻¹. In series [6], the Km is recorded as 0.18 ± 0.05 mM and the kcat amounted to 0.5 ± 0.03 s⁻¹.

Values taken from patent publication US10829756B2, “Discovery of enzymes from the alpha-keto acid decarboxylase family” (priority 2015, dated 2020).
